For this experiment, the target named is T1, Recombinant His-tagged NPM/B23 (UniProt P06748 1-294).
T1 construct: NPM/B23 (Nucleophosmin), bacterially produced, unphosphorylated; also called His-NPM/B23; His-tagged NPM/B23 WT; source: E. coli BL21, purified (Ni-NTA agarose)
Put plainly: pull-down; in vitro binding assay: Flag-Plk2 fragments immunoprecipitated from 293T cells, bound to Protein G sepharose, incubated with 15 µg recombinant His-NPM/B23 in PBS with 0.05% NP-40 for 2 h at 4°C; Western blot. The settings on record: both partners purified. A general note: In western blotting, separated proteins are transferred to a membrane and probed.

T1 sequence (P06748 whole entry): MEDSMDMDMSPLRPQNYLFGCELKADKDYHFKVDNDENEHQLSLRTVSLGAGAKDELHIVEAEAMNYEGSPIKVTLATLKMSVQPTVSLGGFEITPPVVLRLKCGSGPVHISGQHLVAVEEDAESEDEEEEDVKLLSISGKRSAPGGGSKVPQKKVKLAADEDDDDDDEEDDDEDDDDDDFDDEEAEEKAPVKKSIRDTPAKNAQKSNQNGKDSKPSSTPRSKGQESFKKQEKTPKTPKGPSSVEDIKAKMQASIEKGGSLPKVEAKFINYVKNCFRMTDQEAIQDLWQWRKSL

B1: Flag-Plk2-(aa 590–685) (domain or fragment, UniProt Q9NYY3 590-685, looked up)
chain: PSVTDIRRPRLYLLQWLKSDKALMMLFNDGTFQVNFYHDHTKIIICSQNEEYLLTYINEDRISTTFRLTTLLMSGCSSELKNRMEYALNMLLQRCN
notes: also called second Polo-box of Plk2; source: 293T, transfected, immunoprecipitated with anti-Flag antibodies
Regarding B1, the binding result was “binds”.

Source of the values: publication PMC2844433, “Polo-Like Kinase 2-Dependent Phosphorylation of NPM/B23 on Serine 4 Triggers Centriole Duplication” (PLoS ONE, 2010).
